Reference: patent publication US9757451B2, “Use of RANK/RANKL antagonists for treating muscular dystrophy” (UNIVERSITÉ LAVAL, priority 2011, dated 2017)
“Also recorded” adds a separate entry of the source.

Key:
C2C12 myotubes [1] = assay: Dexamethasone-induced myotube atrophy (myotube diameter) in vitro; type: cell-based, mouse
Description: FIG. 9. […] Myotubes were incubated with DEX (1,000 nM) and/or OPG at 10 ng/mL or 100 ng/mL. OPG used and tested in vivo and in vitro was bought from R&D systems (Catalog number:459-MO).
To further investigate how RANK/RANKL influences muscle function, the present inventor(s) have assessed the effect of DEX on C2C12 myoblasts grown in DMEM containing 10% FBS and 1% antibiotic-antimycotic in 96-well plates at a density of 3,000 myoblasts/well. The present inventor(s) used this mouse myoblast cell line because the present inventor(s) are very familiar with it and because it easily differentiates into myotubes and responds to RANKL stimulation. Confluent myoblasts on coverslips (approximately 300,000/well) were incubated in DMEM containing 2% horse serum for five days to allow them to differentiate into myotubes. The myotubes were then exposed to […]. This concentration was sufficient to induce a 15-20% decrease in myotube diameter relative to control myotubes after 48 h. Myotubes in other wells were treated or not with 1 mM DEX combined with 100 ng/ml of OPG. In the experiment proposed herein, myotube atrophy were determined by measuring the diameters of the myotubes at 100× magnification using a light microscope (Nikon). Three different sites in each well were blindly identified and observed throughout the experiment. The average were considered as a single value. Myotube diameters were quantified using the ImageJ digital imaging system (NIH). The diameters of 150 to 200 myotubes per well were measured after 24 and 48 h. Measurements were performed in triplicate for all the experimental conditions to enable statistical comparisons between groups.

[2] = cited from earlier work
C57BL/10J mice = assay: Contractile and physical properties of SOL and EDL muscles of C57BL/10J control mice injected with OPG; type: in vivo; conditions: OPG 0.3 mg/kg/day i.p. 10 days, mean +/- sem
Excerpt: (§1) Muscle contractility measurements were used to test the involvement of the RANK/RANKL pathway in muscle dysfunction. In vitro measurements of muscle contractility are the gold standard for assessing muscle function and were be performed as described previously^68,69. […] Twitch and tetanic contractions were elicited, and the following measurements recorded: maximum twitch tension (Pt), time to peak tension (TPT), one-half relaxation time (RT 1/2), and maximum tetanic tension (Po). To assess muscle fatigue, EDL and SOL muscles from RANK^fl/fl and RANK^del/fl mice were stimulated at 1 train/s at 50 Hz, and the time to the loss of 30% of their initial force recorded. […] Consistent with this observation that RANK^del/fl mice expressed a faster muscle phenotype than wild type, SOL and EDL muscles from these mice were less resistant to a fatigue protocol (FIGS. 5,6). The muscles were weighed without their tendons to quantify muscle mass and to allow the calculation of the maximum specific Po (N/cm^2).
(§2) SOL and EDL muscles from male wild type and mdx mice were dissected and contractile properties analyzed at 4 weeks of age.

mdx mice = assay: Contractile and physical properties of SOL and EDL muscles of mdx mice injected with OPG; type: in vivo; conditions: for half relaxation time (½ RT) / maximal absolute force (Po) / maximal twitch tension (Pt) / time to peak tension (TPT) / Muscle weight: mdx, mean +/- sem
Excerpt: as §1
Male mdx mice (C57BL/10ScSnJ) were purchased from Jackson Laboratories. Mdx mice were then injected i.p. with OPG (0.3 mg/kg/day) for 10 days during the 3rd and 4th week of life. Body weight were measured every 2 days and drug volume were adjusted accordingly. This concentration of OPG is selected because it is known to inhibit RANKL and bone resorption.
as §2

C2C12 myotubes [3] = assay: Ca2+ concentration in myotubes measured with fluo-4; type: cell-based, mouse; conditions: RANKL 100 ng/ml, 10 min; myotubes 5 days in differentiation medium
Description: FIG. 17: RANK/RANKL interaction influences Ca^2+ homeostasis and activates different cell signaling pathways. […] Data are presented as mean+/−sem.
C2C12 myotubes fully differentiated were incubated with fluo-4 to measure Ca^2+ concentration. C2C12 Myotubes were then exposed to RANKL (100 ng/ml) for 10 min. […] (FIG. 17A). Serca activity in sham and denervated RANK^del/fl compared to sham and denervated RANK^fl/fl EDL muscles were then measured by spectrofluorimetric analysis. SERCA activity increased by more than 2-fold in EDL muscles from sham and denervated RANK^del/fl mice (FIG. 17B). […] Graph representing the difference in the expression of SERCA isoforms for each fiber type for SOL and EDL muscles compared to sham RANK^fl/fl mice. (FIG. 17E). […] Data are presented as mean+/−sem.

[4] = EDL muscle ex vivo, OPG 0.3 mg/kg/day i.p. 10 days
[5] = SOL muscle ex vivo, OPG 0.3 mg/kg/day i.p. 10 days

C[C@@H]1C[C@H]2[C@@H]3CCC4=CC(=O)C=C[C@]4(C)[C@@]3(F)[C@@H](O)C[C@]2(C)[C@@]1(O)C(=O)CO [DEX, dexamethasone, reference compound]
decrease in myotube diameter relative to control myotubes (C2C12 myotubes [1]; 1 mM DEX, after 48 h): 15-20%

Denosumab: full human antibody that shares the pharmalogical attributes of OPG; RANKL antagonist
half-life relative to OPG [2]: significant longer half-life

B1: OPG: Osteoprotegerin, binds RANKL and inhibits the RANK/RANKL interaction; bought from R&D systems (Catalog number:459-MO) (protein, UniProt O08712 22-401, looked up)
Tumor necrosis factor …: ETLPPKYLHYDPETGHQLLCDKCAPGTYLKQHCTVRRKTLCVPCPDHSYTDSWHTSDECVYCSPVCKELQSVKQECNRTHNRVCECEEGRYLEIEFCLKHRSCPPGSGVVQAGTPERNTVCKKCPDGFFSGETSSKAPCIKHTNCSTFGLLLIQKGNATHDNVCSGNREATQKCGIDVTLCEEAFFRFAVPTKIIPNWLSVLVDSLPGTKVNAESVERIKRRHSSQEQTFQLLKLWKHQNRDQEMVKKIIQDIDLCESSVQRHLGHSNLTTEQLLALMESLPGKKISPEEIERTRKTCKSSEQLLKLLSLWRIKNGDQDTLKGLMYALKHLKTSHFPKTVTHSLRKTMRFLHSFTMYRLYQKLFLEMIGNQVQSVKISCL
effect on DEX-induced atrophic and phenotype change process in myotubes (C2C12 myotubes [1]; 1 mM DEX, >100 ng/ml of OPG, preliminary results): reversed the atrophic and phenotype change process
effect on DEX-induced myotube atrophy (C2C12 myotubes [1]; DEX 1,000 nM, OPG 100 ng/ml, 24 and 48 h (FIG. 9)): protects against DEX-induced myotube atrophy; also recorded: totally reversed the atrophic process; also recorded: prevents myotube atrophy
half relaxation time (½ RT) (C57BL/10J mice; EDL muscle ex vivo): 20.3 ± 2.4 ms
maximal absolute force (Po) (C57BL/10J mice; EDL muscle ex vivo): 14.53 ± 3.44 g
maximal twitch tension (Pt) (C57BL/10J mice; EDL muscle ex vivo): 2.52 ± 0.26 g
time to peak tension (TPT) (C57BL/10J mice; EDL muscle ex vivo): 25.8 ± 2.6 ms
Muscle weight (C57BL/10J mice; EDL muscle): 4.18 ± 0.25 mg
half relaxation time (½ RT) (C57BL/10J mice; SOL muscle ex vivo): 46.8 ± 5.7 ms
maximal absolute force (Po) (C57BL/10J mice; SOL muscle ex vivo): 10.79 ± 0.27 g
maximal twitch tension (Pt) (C57BL/10J mice; SOL muscle ex vivo): 1.8 ± 0.06 g
time to peak tension (TPT) (C57BL/10J mice; SOL muscle ex vivo): 50.75 ± 3.83 ms
Muscle weight (C57BL/10J mice; SOL muscle): 3.73 ± 0.20 mg
half relaxation time (½ RT) (mdx mice; [4]): 20.67 ± 2.18 ms
maximal absolute force (Po) (mdx mice; [4]): 10.3 ± 1.3 g
maximal twitch tension (Pt) (mdx mice; [4]): 2.01 ± 0.2 g
time to peak tension (TPT) (mdx mice; [4]): 29.75 ± 7.47 ms
Muscle weight (mdx mice; EDL muscle, OPG 0.3 mg/kg/day i.p. 10 days): 4.96 ± 0.93 mg
half relaxation time (½ RT) (mdx mice; [5]): 38 ± 3.3 ms
maximal absolute force (Po) (mdx mice; [5]): 8.02 ± 2.99 g
maximal twitch tension (Pt) (mdx mice; [5]): 1.2 ± 0.18 g
time to peak tension (TPT) (mdx mice; [5]): 35.2 ± 2.43 ms
Muscle weight (mdx mice; SOL muscle, OPG 0.3 mg/kg/day i.p. 10 days): 4.90 ± 0.72 mg
increase of maximum force production (maximum specific tetanic force) of EDL muscles (mdx mice; male mdx mice, OPG 0.3 mg/kg daily 10 days from day 18 after birth, vs PBS): more than 200%
specific muscle force of EDL muscles (mdx mice; young mdx mice (28 days), OPG 0.3 mg/kg/day i.p. 10 days, compared to PBS): Specific muscle force preservation is also observed

B2: RANKL: receptor-activator of nuclear factor κβ ligand, added at 100 ng/ml to C2C12 myotubes (protein, UniProt O35235 139-316, looked up)
Tumor necrosis factor ligand …: FSGAPAMMEGSWLDVAQRGKPEAQPFAHLTINAASIPSGSHKVTLSSWYHDRGWAKISNMTLSNGKLRVNQDGFYYLYANICFRHHETSGSVPTDYLQLMVYVVKTSIKIPSSHNLMKGGSTKNWSGNSEFHFYSINVGGFFKLRAGEEISIQVSNPSLLDPDQDATYFGAFKVQDID
effect on DEX-induced myotube atrophy (C2C12 myotubes [1]; RANKL with DEX): exacerbates
cytosolic Ca2+ (mean fluorescence intensity of fluo-4) (C2C12 myotubes [3]): increased the release of cytosolic Ca^2+; also recorded: increased mean fluorescence intensity of fluo-4
